T1: human FcγRIIb extracellular domain, His-tagged GST fusion (human, UniProt P31994 43-217)
T1 construct: extracellular domain; also called hFcgRIIb; CD32B; not shown: C-terminal Gly/His6/GST tag
T1 sequence (looked up): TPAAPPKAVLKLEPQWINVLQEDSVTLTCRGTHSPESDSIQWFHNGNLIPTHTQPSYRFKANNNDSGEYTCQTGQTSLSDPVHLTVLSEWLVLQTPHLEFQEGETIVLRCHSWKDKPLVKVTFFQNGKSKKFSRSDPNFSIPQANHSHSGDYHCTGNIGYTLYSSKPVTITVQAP

T2: human FcγRIIa extracellular domain, His-tagged GST fusion (human, UniProt P12318 34-217)
T2 construct: extracellular domain; also called hFcgRIIa; CD32A; not shown: C-terminal Gly/His6/GST tag
T2 sequence (looked up): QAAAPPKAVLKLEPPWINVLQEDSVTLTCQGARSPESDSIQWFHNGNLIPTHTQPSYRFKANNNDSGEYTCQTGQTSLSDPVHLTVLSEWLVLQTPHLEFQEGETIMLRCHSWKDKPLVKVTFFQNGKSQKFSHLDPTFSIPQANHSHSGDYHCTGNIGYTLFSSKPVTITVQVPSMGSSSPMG

B1: 11G9 (antibody, V domains shown)
VH: DVQLQESGPSLVKPSQTLSLTCSVTGDSITSGYWNWIRKFPGNKLEYMGYISYSGSTYYNPSLKSRISITRDTSKNQFYLQLLSVTTEDTATYYCAGLDGLYWYFDVWGAGTLVTVSS
VL: DIVMTQTPLSLPVSLGDQASISCRSSQSLVHSNGNTYLHWYLQKPGQSPKLLIYKVSNRFSGVPDRFSGSGSGTDFTLKISRVEAEDLGVYFCSQSTHVPPFTFGSGT
notes: also called chimeric 11G9
B2: V3-1 (antibody, V domains shown)
VH: EVQLVESGGGLVQPGGSLRLSCAASGFTISSNSIHWVRQAPGKGLEWVAWITPSDGNTDYADSVKGRFTISADTSKNTAYLQMNSLRAEDTAVYYCARRVCYNRLGVCAGGMDYWGQGTLVTVSS
VL: DIQMTQSPSSLSASVGDRVTITCRASQDVSTAVAWYQQKPGKAPKLLIYSASFLYSGVPSRFSGSGSGTDFTLTISSLQPEDFATYYCQQSRITPPTFGQGTKVEIKR
B3: 2.1 (antibody, V domains shown)
VH: EVQLQESGPSLVKPSQTLSLTCSVTGDSITRGYWNWIRKFPGNKLEFMGYINYSGTTYYNPSLKSRISITRDTSKNQYYLQLNSVTTEDTATYYCATPHTYGAMDYWGQGTTLTVSA
VL: DIVLTQSPVSLAVSLGQRATISCRASESVDDYGISFMHWYQQKPGQPPKLLIYRASDLESGIPARFSGSGSGTDFTLTINPVETDDVAIYYCQQTSKDPWTFGGGT
notes: also called chimeric 2.1
B4: Hu9.1RF IgG1 2% G0-F (antibody)
heavy: not shown
light: DIQMTQSPSSLSASVGDRVTITCKSSQSLLYSSNQNNYLAWYQQKPGKAPKLLIYWASTRESGVPSRFSGSGSGTDFTLTISSLQPEDFATYYCQQYYTYPYTFGQGTKVEIKRTVAAPSVFIFPPSDEQLKSGTASVVCLLNNFYPREAKVQWKVDNALQSGNSQESVTEQDSKDSTYSLSSTLTLSKADYEKHKVYACEVTHQGLSSPVTKSFNRGEC
modifications: 2% G0-F (afucosylated) Fc glycan content
notes: Same protein as Hu9.1RF IgG1; glycoform composition; also called 2% G0-F GLP-Hu9.1RF IgG1; 2% afucosylated Hu9.1RF IgG1
B5: Hu9.1RF IgG1 6% G0-F (antibody)
heavy: not shown
light: B4 light
modifications: expected 6% G0-F (determined 6%)
notes: Mixture of 37% G0-F and 2% G0-F Hu9.1RF IgG1
B6: Hu9.1RF IgG1 20% G0-F (antibody)
heavy: not shown
light: B4 light
modifications: expected 20% G0-F (determined 23%)
notes: as for B5
B7: Hu9.1RF IgG1 4% G0-F (antibody)
heavy: not shown
light: B4 light
modifications: expected 4% G0-F (determined 3%)
notes: as for B5
B8: Hu9.1RF IgG1 10% G0-F (antibody)
heavy: not shown
light: B4 light
modifications: expected 10% G0-F (determined 8%)
notes: as for B5

Molecular target: T3, miniBR3 displayed on M13 phage (epitope-tagged, fused to gene-8 major coat protein) (human; bacteriophage M13, UniProt Q96RJ3 17-42)
T3 construct: range 17-42; also called p-miniBR3
Experiment: shotgun Ala scan, miniBR3 phage
From the text: Each “partial miniBR3” template was used as the template for Kunkel mutagenesis with mutagenic oligonucleotides designed to replace the template stop codons with the complementary region of miniBR3, while simultaneously introducing mutations at the desired sites. At the sites of mutation, wild-type codons were replaced with the corresponding shotgun alanine codon (Weiss, supra). Each of these two libraries allowed for mutations at 11 residues in miniBR3 with no mutated positions in common between libraries. Library 1 encoded shotgun codons at positions 17, 18, 20-23, 25, 27, 28, 30, and 33, while library 2 encoded shotgun codons at positions 26, 29, 31, 34, and 36-42. Each library contained 2×10⁹ members, allowing for complete representation of the theoretical diversity (>10⁴-fold excess).
The display selection was included in order to normalize the anti-BR3 antibody-binding selection for expression differences between library members. Phage eluted from each target were propagated in E. coli XL1-blue; amplified phage were used for selection against the same target as in the previous round. After two rounds of selection, 48 individual clones from each library and selection were grown in a 96-well format in 400 L of 2YT medium supplemented with carbenicillin and KO7 helper phage.
F-values were calculated as previously described (Weiss, supra-, Gordon, supra). […] Deleterious mutations have ratios >1, while advantageous mutations have ratios <1; boldface indicates a >10-fold effect.

Compared with B1, B2 is lower in “F value, mutation at BR3 A22” value: 45 for the first, 0.7 for the second.

For B3, the “F value, mutation at BR3 A22” value was 3.2.

Compared with B1, B2 is lower in “F value, mutation at BR3 A34” value: 32 for the first, 13 for the second.

With B3 the “F value, mutation at BR3 A34” value was 62.

Going from B1 to B2, the “F value, mutation at BR3 D26” value rises from 8.5 to 8.7.

With B3 the “F value, mutation at BR3 D26” value was 6.1.

Going from B1 to B2, the “F value, mutation at BR3 E23” value falls from 6.9 to 2.4.

With B3 the “F value, mutation at BR3 E23” value was 9.6.

Going from B1 to B2, the “F value, mutation at BR3 F25” value falls from 38 to 21.

For B3, the “F value, mutation at BR3 F25” value was 49.

Compared with B1, B2 is lower in “F value, mutation at BR3 G36” value: 1.8 for the first, 0.7 for the second.

With B3 the “F value, mutation at BR3 G36” value was 14.

Going from B1 to B2, the “F value, mutation at BR3 H31” value falls from 2.8 to 0.1.

B3 was tested, and the “F value, mutation at BR3 H31” value was 0.6.

Going from B1 to B2, the “F value, mutation at BR3 L27” value rises from 1.1 to 1.4.

For B3, the “F value, mutation at BR3 L27” value was 0.8.

First: B1
Second: B2
The “F value, mutation at BR3 L28” value of the first is lower: 0.4 for the first, 98 for the second.

B3 was tested, and the “F value, mutation at BR3 L28” value was 0.1.

B1 and B2 are the same in “F value, mutation at BR3 L37” value: 0.7 for the first, 0.7 for the second.

In the case of B3, the “F value, mutation at BR3 L37” value is reported as 0.1.

First: B1
Second: B2
The “F value, mutation at BR3 L38” value of the first is lower: 0.9 for the first, 1.4 for the second.

For B3, the “F value, mutation at BR3 L38” value was 0.9.

Going from B1 to B2, the “F value, mutation at BR3 P18” value rises from 0.5 to 0.8.

For B3, the “F value, mutation at BR3 P18” value was 0.5.

Compared with B1, B2 is lower in “F value, mutation at BR3 P21” value: 40 for the first, 0.6 for the second.

In the case of B3, the “F value, mutation at BR3 P21” value is reported as 1.9.

First: B1
Second: B2
The “F value, mutation at BR3 P41” value of the first is higher: 1.7 for the first, 1.6 for the second.

With B3 the “F value, mutation at BR3 P41” value was 0.7.

Going from B1 to B2, the “F value, mutation at BR3 R30” value rises from 1.7 to 20.

B3 was tested, and the “F value, mutation at BR3 R30” value was 10.

Going from B1 to B2, the “F value, mutation at BR3 R39” value falls from 3.1 to 0.4.

In the case of B3, the “F value, mutation at BR3 R39” value is reported as 0.5.

B1 and B2 are the same in “F value, mutation at BR3 R42” value: 0.9 for the first, 0.9 for the second.

For B3, the “F value, mutation at BR3 R42” value was 1.8.

B1 and B2 are the same in “F value, mutation at BR3 T17” value: 0.5 for the first, 0.5 for the second.

For B3, the “F value, mutation at BR3 T17” value was 0.6.

Compared with B1, B2 is higher in “F value, mutation at BR3 T40” value: 0.5 for the first, 0.6 for the second.

B3 was tested, and the “F value, mutation at BR3 T40” value was 0.2.

Compared with B1, B2 is lower in “F value, mutation at BR3 V20” value: 1.1 for the first, 0.9 for the second.

For B3, the “F value, mutation at BR3 V20” value was 3.

Going from B1 to B2, the “F value, mutation at BR3 V29” value rises from 1 to 92.

For B3, the “F value, mutation at BR3 V29” value was 0.5.

First: B1
Second: B2
The “F value, mutation at BR3 V33” value of the first is higher: 24 for the first, 14 for the second.

In the case of B3, the “F value, mutation at BR3 V33” value is reported as 10.

Molecular target: T4, human FcγRI extracellular domain, His-tagged GST fusion (human, UniProt P12314 16-292)
T4 construct: extracellular domain; also called hFcgRI; FcγRIA; not shown: C-terminal Gly/His6/GST tag
Experiment: ELISA, captured FcγR-GST, monomeric IgG

B4 and B5 are within 1.5-fold of each other in EC50: 3.92 ng/mL for the first, 4.12 ng/mL for the second.

B6 and B7 are within 1.5-fold of each other in EC50: 3.74 ng/mL for the first, 3.73 ng/mL for the second.

B8 gave an EC50 of 3.91 ng/mL.

Molecular target: T1, human FcγRIIb extracellular domain, …
Experiment: ELISA, captured FcγR-GST, multimeric IgG
Method: (§1) FcγRs were expressed as recombinant fusion proteins of the extracellular domain of the receptor alpha chains with gly/his6/glutathione-s-transferase (GST). Assay plates coated with anti-GST and blocked with BSA were used to capture each FcγR. Plates were washed with wash buffer (0.05% polysorbate 20 in PBS, pH 7.4) after each incubation. […] Bound antibody was detected with the horseradish peroxidase (HRP)-conjugated F(ab′)2 fragment of a goat anti-human IgG F(ab′)₂ (Jackson ImmunoResearch; West Grove, Pa.). Plates were developed with tetramethylbenzidine (TMB) (KPL, Inc.; Gaithersburg, Md.) as the substrate. Absorbance was measured at a wavelength of 450 nm with a reference of 650 nm. Mean absorbance values from duplicate wells were plotted as a function of antibody concentration. Data were fit to a four-parameter equation to determine the concentration that yields 50% of maximum binding to each FcγR (EC₅₀) for each antibody.

B4 and B5 are within 1.5-fold of each other in EC50: 0.96 µg/mL for the first, 0.91 µg/mL for the second.

B6 and B7 are within 1.5-fold of each other in EC50: 0.82 µg/mL for the first, 0.95 µg/mL for the second.

In the case of B8, the EC50 is reported as 0.88 µg/mL.

Molecular target: T2, human FcγRIIa extracellular domain, …
Experiment: ELISA, captured FcγR-GST, multimeric IgG
Method: as §1

B4 and B5 are within 1.5-fold of each other in EC50: 0.3 µg/mL for the first, 0.23 µg/mL for the second.

First: B6
Second: B7
The EC50 of the first is 1.5-fold lower: 0.17 µg/mL for the first, 0.26 µg/mL for the second.

With B8 the EC50 was 0.24 µg/mL.
